Reference: publication PMC12867984, “Functional assessment of protein variants in structured domains by fluorescence cross-correlation spectroscopy” (Scientific Reports, 2026)
Substitutions are numbered along the chain they refer to. Names and notes keep the numbering of the source. Values belong to the binder of their own block, whether it stands above or below them.

Key:
[1] = molecular target: T1, mCherry-JUND (UniProt P17535 1-347); assay: fluorescence cross-correlation spectroscopy (FCCS); lysate of co-transfected HeLa cells; 20 mM Tris-HCl pH 7.5, 140 mM KCl, 1.5 mM MgCl2, 1 mM DTT, 0.5% NP-40; lysed at room temperature; cross-correlation/autocorrelation ratio; conditions: partners not purified
T1 construct: JUND; the construct is not described in the methods; also called JunD Proto-Oncogene; source: HeLa, transfected, in lysate
T1 sequence (looked up): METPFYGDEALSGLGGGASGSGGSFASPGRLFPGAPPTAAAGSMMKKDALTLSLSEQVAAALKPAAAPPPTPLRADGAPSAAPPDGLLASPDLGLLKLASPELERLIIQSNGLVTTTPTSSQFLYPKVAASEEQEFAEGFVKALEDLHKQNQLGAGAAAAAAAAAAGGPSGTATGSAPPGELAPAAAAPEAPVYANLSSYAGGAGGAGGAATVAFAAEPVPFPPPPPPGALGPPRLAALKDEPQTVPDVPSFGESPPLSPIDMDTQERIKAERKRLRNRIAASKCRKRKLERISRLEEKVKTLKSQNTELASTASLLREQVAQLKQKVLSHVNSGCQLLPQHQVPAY

[2] = molecular target: T2, mCherry-BARD1 (UniProt Q99728 1-777); assay: as above; conditions: partners not purified
T2 construct: also called BRCA1 Associated RING Domain 1; source: HeLa, transfected, in live cells and in lysate
T2 sequence (looked up): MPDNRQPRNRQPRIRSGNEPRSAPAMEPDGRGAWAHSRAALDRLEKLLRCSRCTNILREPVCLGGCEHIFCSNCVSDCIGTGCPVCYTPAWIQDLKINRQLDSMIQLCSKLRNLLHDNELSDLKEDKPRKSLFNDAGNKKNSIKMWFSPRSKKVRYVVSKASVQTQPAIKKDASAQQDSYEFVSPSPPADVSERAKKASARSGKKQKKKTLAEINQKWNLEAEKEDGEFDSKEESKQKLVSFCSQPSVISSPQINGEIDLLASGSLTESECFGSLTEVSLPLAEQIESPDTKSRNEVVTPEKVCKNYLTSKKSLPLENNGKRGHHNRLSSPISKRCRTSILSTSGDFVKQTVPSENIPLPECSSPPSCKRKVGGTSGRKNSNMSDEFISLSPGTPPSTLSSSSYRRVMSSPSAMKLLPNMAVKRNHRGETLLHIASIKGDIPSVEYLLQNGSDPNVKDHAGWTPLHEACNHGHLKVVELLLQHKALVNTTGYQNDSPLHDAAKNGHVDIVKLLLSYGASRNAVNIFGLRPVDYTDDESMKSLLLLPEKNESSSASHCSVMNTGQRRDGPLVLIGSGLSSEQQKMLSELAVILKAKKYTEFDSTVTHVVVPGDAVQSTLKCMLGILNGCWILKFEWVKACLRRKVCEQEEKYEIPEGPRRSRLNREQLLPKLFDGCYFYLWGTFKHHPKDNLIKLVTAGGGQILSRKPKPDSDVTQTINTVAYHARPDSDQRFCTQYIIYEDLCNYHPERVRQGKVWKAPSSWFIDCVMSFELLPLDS

cross-correlation [1]: 21%
B1: GFP-Menin (natural protein, UniProt O00255 1-610, looked up)
chain: MGLKAAQKTLFPLRSIDDVVRLFAAELGREEPDLVLLSLVLGFVEHFLAVNRVIPTNVPELTFQPSPAPDPPGGLTYFPVADLSIIAALYARFTAQIRGAVDLSLYPREGGVSSRELVKKVSDVIWNSLSRSYFKDRAHIQSLFSFITGTKLDSSGVAFAVVGACQALGLRDVHLALSEDHAWVVFGPNGEQTAEVTWHGKGNEDRRGQTVNAGVAERSWLYLKGSYMRCDRKMEVAFMVCAINPSIDLHTDSLELLQLQQKLLWLLYDLGHLERYPMALGNLADLEELEPTPGRPDPLTLYHKGIASAKTYYRDEHIYPYMYLAGYHCRNRNVREALQAWADTATVIQDYNYCREDEEIYKEFFEVANDVIPNLLKEAASLLEAGEERPGEQSQGTQSQGSALQDPECFAHLLRFYDGICKWEEGSPTPVLHVGWATFLVQSLGRFEGQVRQKVRIVSREAEAAEAEEPWGEEAREGRRRGPRRESKPEEPPPPKKPALDKGLGTGQGAVSGPPRKPPGTVAGTARGPEGGSTAQVPAPTASPPPEGPVLTFQSEKMKGMKELLVATKINSSAIKLQLTAQSQVQMKKQKVSTPSDYTLSFLKRQRKGL
notes: Menin (MEN1); the construct and its isoform are not described in the methods; also called MEN1 factor Menin; source: HeLa, transfected, in lysate

binding relative to wild type [1]: ~50%
B2: GFP-Menin A242V (natural protein, UniProt O00255 1-610, looked up)
chain: B1 chain with A242V
notes: Menin (MEN1) with the variant; construct and isoform not described; source: HeLa, transfected, in lysate

binding relative to wild type [1]: ~50%
B3: GFP-Menin A237V (natural protein, UniProt O00255 1-610, looked up)
chain: B1 chain with A237V
notes: as for B2

cross-correlation [2]: 25%
B4: GFP-RING (isolated BRCA1 RING domain, wild-type) (domain or fragment, UniProt P38398 1-109, looked up)
chain: MDLSALRVEEVQNVINAMQKILECPICLELIKEPVSTKCDHIFCKFCMLKLLNQKKGPSQCPLCKNDITKRSLQESTRFSQLVEELLKIICAFQLDTGLEYANSYNFAK
notes: BRCA1 amino acids 1-109 cloned into pEGFP-C1; also called EGFP-tagged RING trimmed domain; wild-type RING; source: HeLa, transfected, in lysate

reduction in binding relative to wild type [2]: 30%
B5: GFP-RING-T37R (domain or fragment, UniProt P38398 1-109, looked up)
chain: B4 chain with T37R
notes: BRCA1 amino acids 1-109 with the variant; also called p.Thr37Arg; source: HeLa, transfected, in lysate

reduction in binding relative to wild type [2]: 22%
B6: GFP-RING D67Y (domain or fragment, UniProt P38398 1-109, looked up)
chain: B4 chain with D67Y
notes: BRCA1 amino acids 1-109 with the variant; also called D67Y variant (isolated RING domain); source: HeLa, transfected, in lysate

reduction in binding relative to wild type [2]: 20%
B7: GFP-RING-T37K (domain or fragment, UniProt P38398 1-109, looked up)
chain: B4 chain with T37K
notes: BRCA1 amino acids 1-109 with the variant; source: HeLa, transfected, in lysate
